The values that follow come from article doi:10.1101/2022.02.25.482063.

The test addresses motavizumab. Description: SPR. (In general: In SPR one partner is held on a chip, and binding of the other changes the refractive index at the surface.)

Regarding “RSV F glycoprotein S275H, on virions of recombinant RSV-A2 mKate2 (natural protein)”, the fold reduction of the on-rate (ka) against WT is > 6 fold.
